Results from patent publication US20090208977A1.

Assays:
[1] = target: human BRS3 (ENSG00000102239) (human) (UniProt P32247); assay: flow cytometry, live human sperm; antibody not named (SC33404 is the only BRS3 antibody that bound)
[2] = target: human FMR1NB (ENSG00000176988) (human) (UniProt Q8N0W7); assay: flow cytometry, live human sperm; antibody not named (only one FMR1NB antibody was tried)
Chain of UniProt Q8N0W7 (Q8N0W7 whole entry): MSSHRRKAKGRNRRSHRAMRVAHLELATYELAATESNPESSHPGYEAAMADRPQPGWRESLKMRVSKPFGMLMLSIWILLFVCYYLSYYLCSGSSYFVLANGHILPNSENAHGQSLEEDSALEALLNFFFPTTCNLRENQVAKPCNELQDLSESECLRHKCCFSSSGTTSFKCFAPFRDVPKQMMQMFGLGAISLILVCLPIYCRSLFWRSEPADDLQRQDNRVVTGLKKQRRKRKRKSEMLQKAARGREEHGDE

Chain of UniProt P32247 (P32247 whole entry): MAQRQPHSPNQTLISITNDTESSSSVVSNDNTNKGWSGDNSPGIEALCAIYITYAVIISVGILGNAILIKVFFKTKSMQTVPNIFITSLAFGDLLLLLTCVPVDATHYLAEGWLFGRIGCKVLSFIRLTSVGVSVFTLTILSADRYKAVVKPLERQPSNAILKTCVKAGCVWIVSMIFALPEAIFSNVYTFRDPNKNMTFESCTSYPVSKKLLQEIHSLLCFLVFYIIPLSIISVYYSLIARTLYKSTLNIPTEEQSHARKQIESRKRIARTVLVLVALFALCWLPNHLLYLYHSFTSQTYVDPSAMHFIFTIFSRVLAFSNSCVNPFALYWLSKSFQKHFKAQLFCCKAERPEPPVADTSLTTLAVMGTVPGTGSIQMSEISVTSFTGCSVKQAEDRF

Sperm cells showing specific binding (%) [1] | Sperm cells showing specific binding (%) [2] | Substance
10.7% | – | BRS-3 (N-14), Santa Cruz Biotechnology SC-33404 (antibody)
– | 29.7% | FMR1NB antibody, Proteintech Group 11069-2-AP
